Laboratory results taken from publication PMC4601027 (2015).
Non-standard residues stand in square brackets, D forms with d. No end group written: not given here. pS = N[C@@H](COP(=O)(O)O)C(=O)O

B1: Pin1 WW domain (domain or fragment)
chain: MADEEKLPPGWEKRMSRSSGRVYYFNHITNASQWERPSGNS

What was measured:
Assay in all cases: ITC
CPEB1 pS138 peptide = CPEB1 pS138 peptide (UniProt Q9BZB8, phosphoserine at 138)
CPEB1 pS248 peptide = CPEB1 pS248 peptide (UniProt Q9BZB8, phosphoserine at 248)
CPEB1 pS423 peptide = CPEB1 pS423 peptide (UniProt Q9BZB8, phosphoserine at 423)
CPEB1 pS184 peptide = CPEB1 pS184 peptide (UniProt Q9BZB8, phosphoserine at 184)
CPEB1 pS144 peptide = CPEB1 pS144 peptide (UniProt Q9BZB8, phosphoserine at 144)
full-length Pin1 = full-length Pin1 (UniProt Q13526 1-163)
Sequence of full-length Pin1 (Q13526 whole entry, the tested form may be a part): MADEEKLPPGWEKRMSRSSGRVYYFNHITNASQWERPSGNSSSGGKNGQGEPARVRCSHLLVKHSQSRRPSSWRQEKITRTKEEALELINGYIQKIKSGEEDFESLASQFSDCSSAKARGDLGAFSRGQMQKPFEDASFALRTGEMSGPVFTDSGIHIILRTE

Pin1 WW domain = molecular target: B1

Kd (CPEB1 pS138 peptide) | Kd (CPEB1 pS248 peptide) | Kd (CPEB1 pS423 peptide) | Kd (CPEB1 pS184 peptide) | Kd (CPEB1 pS144 peptide) | Kd (full-length Pin1) | Kd (Pin1 WW domain) | Binder
71.3 µM | 47.6 µM | 158 µM | 28.6 µM | 75.4 µM | – | – | B1
– | – | – | – | – | 32.3 µM | 30.3 µM | RI[pS]PPLPF-NH2 [CPEB1 pS210 peptide]
